This note sets out measurements from patent US20240141039A1 (AGENUS, published 2024).

Read-outs that look alike come from different tables or passages of the source.

Experiment [1] deals with T1, wild type full-length human TIGIT expressed on cells (human, UniProt Q495A1 22-244).
T1 construct: whole, on cells; also called human TIGIT-CHO; human TIGIT CHO cells
T1 sequence (looked up): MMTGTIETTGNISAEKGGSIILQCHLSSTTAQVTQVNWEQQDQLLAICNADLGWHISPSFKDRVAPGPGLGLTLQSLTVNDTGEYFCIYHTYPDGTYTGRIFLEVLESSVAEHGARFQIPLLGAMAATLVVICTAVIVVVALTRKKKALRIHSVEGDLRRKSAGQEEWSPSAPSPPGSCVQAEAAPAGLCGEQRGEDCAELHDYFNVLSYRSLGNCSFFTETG
In words: flow cytometry, blocking of CD155-Fc-PE binding to human TIGIT CHO cells, geomean of 3 experiments. Here is the method:
(§1) A 4× concentrated intermediate stock of each multispecific molecule was prepared in a microplate. Antibodies were serially diluted 1-to-3 in FACS buffer. […] Lastly, 25 μL of human TIGIT-CHO cells, prepared as described above, were added to each well. After a 30-minute incubation on ice, the cells were washed twice with cold FACS Buffer, and the cells were analyzed by flow cytometry (BD LSR Fortessa Flow Cytometer). The data were analyzed using the FlowJo software by sequentially gating on the FSC-A vs. SSC-A and SSC-H vs. SSC-A. Mean fluorescence intensity (MFI) values for PE were calculated, and the data were plotted by GraphPad Prism software and analyzed as described above.
(Flow cytometry measures light scatter and fluorescence of single cells or particles in a stream.)

Experiment [2] addresses T1, wild type full-length human TIGIT …. In words: flow cytometry, human TIGIT CHO cells, geomean of 2 experiments. Here is the method:
(§2) For the antibody binding assay, a frozen aliquot of human TIGIT-CHO cells was thawed at 37° C. and then transferred to a tube containing DPBS supplemented with 0.5% Bovine Serum Albumin and 0.05% Sodium Azide (FACS Buffer). Cells were centrifuged at 300 g for five minutes. The supernatant was discarded, and cells resuspended in FACS buffer were seeded in a 96-well U-bottom tissue culture plate at a density of 2×10⁵ cells per well in 50 μL. In a separate microplate, a 2× concentrated intermediate stock of each antibody was prepared. Antibodies were serially diluted 1-to-4 in FACS buffer. A total of 11 working dilutions ranging from 60 μg/mL to 0.000057 μg/mL were prepared. Fifty microlitres of each dilution were then transferred to the microplate containing human TIGIT-CHO cells. The cells were then incubated for 45 minutes at 4° C. […] After a 30-minute incubation on ice, the cells were washed twice with cold FACS Buffer, and the cells were analyzed by flow cytometry (BD LSR Fortessa Flow Cytometer). The data were analyzed using the FlowJo software by sequentially gating the FSC-A vs. SSC-A, and SSC-H vs. SSC-A. Mean fluorescence intensity (MFI) values for PE were calculated, and the data were plotted by GraphPad Prism software.

In experiment [3] the target is T2, wild type full-length cynomolgus monkey TIGIT expressed on CHO cells (cynomolgus monkey, UniProt A0A7N9I9V4 89-312).
T2 construct: whole, on cells; also called cynomolgus TIGIT-CHO cells
In words: flow cytometry, blocking of human CD155-Fc-PE binding to CHO cells expressing cynomolgus TIGIT.

In experiment [4] the target is T1, wild type full-length human TIGIT …. In words: flow cytometry on CHO cells expressing human TIGIT, PE anti-human IgG Fc detection. Here is the method: as §2
The target of experiment [5] is T2, wild type full-length cynomolgus monkey …. In words: flow cytometry, blocking of human CD155-Fc-PE binding to CHO cells expressing cynomolgus TIGIT. How it is done:
as §1, with “1-to-4” for “1-to-3”, “cynomolgus” for “human”
This is another data set of the same source.

Experiment [6] has the same target. In words: flow cytometry, blocking of CD155-Fc-PE binding to cynomolgus TIGIT CHO cells, geomean of 3 experiments. How it is done: as §1, with “1-to-4” for “1-to-3”, “cynomolgus” for “human”
The target of experiment [7] is T3, full-length human FcγRIIIa variant F/F expressed on CHO cells (human, UniProt P08637 17-254).
T3 construct: whole, on cells; also called human FcγRIIIa-CHO (variant F/F); human FcγRIIIa (F/F) CHO cells
In words: flow cytometry, human FcγRIIIa (F/F) CHO cells, 1 experiment. How it is done: (§3) For the antibody binding assay, a frozen aliquot of human FcγRIIIa-CHO cells (variant V/V or variant F/F) was thawed at 37° C. and then transferred to a tube containing DPBS supplemented with 0.5% Bovine Serum Albumin and 0.05% Sodium Azide (FACS Buffer). Cells were centrifuged at 300 g for five minutes. The supernatant was discarded, and cells resuspended in FACS buffer were seeded in a 96-well U-bottom tissue culture plate at a density of 2×10⁵ cells per well in 50 μL. In a separate microplate, a 2× concentrated intermediate stock of each antibody was prepared. Antibodies were serially diluted 1-to-4 in FACS buffer. A total of 11 working dilutions ranging from 60 μg/mL to 0.000057 μg/mL were prepared. Fifty microlitres of each dilution were then transferred to the microplate containing human FcγRIIIa-CHO (variant V/V or variant F/F) cells. The cells were then incubated for 45 minutes at 4° C. […] After a 30-minute incubation on ice, the cells were washed twice with cold FACS Buffer, and the cells were analyzed by flow cytometry (BD LSR Fortessa Flow Cytometer). The data were analyzed using the FlowJo software by sequentially gating the FSC-A vs. SSC-A, and SSC-H vs. SSC-A. Mean fluorescence intensity (MFI) values for PE were calculated, and the data were plotted by GraphPad Prism software.

The target of experiment [8] is T4, full-length human FcγRIIIa variant V/V expressed on CHO cells (human, UniProt P08637 17-254).
T4 construct: whole, on cells; also called human FcγRIIIa-CHO (variant V/V); human FcγRIIIa (V/V) CHO cells
In words: flow cytometry, human FcγRIIIa (V/V) CHO cells, representative experiment. Here is the method: as §3

T2 sequence (A0A7N9I9V4 entry or part of it): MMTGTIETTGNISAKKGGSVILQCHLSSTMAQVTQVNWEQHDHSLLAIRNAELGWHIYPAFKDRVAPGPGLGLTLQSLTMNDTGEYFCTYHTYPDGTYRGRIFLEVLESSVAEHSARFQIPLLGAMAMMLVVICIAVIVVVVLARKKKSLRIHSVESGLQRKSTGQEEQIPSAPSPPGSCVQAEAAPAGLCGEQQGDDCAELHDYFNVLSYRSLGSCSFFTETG
T4 sequence (P08637 other isoform, or with tags, fused parts or gaps mutant limits assumed): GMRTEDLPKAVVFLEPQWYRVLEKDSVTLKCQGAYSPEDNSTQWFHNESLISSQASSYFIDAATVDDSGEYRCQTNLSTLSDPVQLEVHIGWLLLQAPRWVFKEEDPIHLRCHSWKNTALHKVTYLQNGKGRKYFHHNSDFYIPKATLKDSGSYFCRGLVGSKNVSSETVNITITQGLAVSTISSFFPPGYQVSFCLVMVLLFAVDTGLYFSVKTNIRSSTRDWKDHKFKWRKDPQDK
T3 sequence (P08637 17-254, change not shown): as the sequence (P08637 other isoform, or with tags, fused parts or gaps mutant limits assumed) above, with V160F counted along it

B1: anti-TIGIT×CD96 multispecific molecule BA127 (bispecific antibody, human IgG1, kappa, lambda)
heavy 1: QVQLVQSGAEVKKPGASVKVSCKASGYTFTTYALHWVRQAPGQRLEWMGWINTGSGDTKYSQKFQGRVTITRDTSASTAYMELSSLRSEDTAVYYCARSLGVYYGMDVWGQGTLVTVSSASTKGPSVFPLAPSSKSTSGGTAALGCLVKDYFPEPVTVSWNSGALTSGVHTFPAVLQSSGLYSLSSVVTVPSSSLGTQTYICNVNHKPSNTKVDKRVEPKSCDKTHTCPPCPAPELLGGPDVFLFPPKPKDTLMISRTPEVTCVVVDVSHEDPEVKFNWYVDGVEVHNAKTKPREEQYNSTYRVVSVLTVLHQDWLNGKEYKCKVSNKALPAPIEKTISKAKGQPREPQVYTLPPSREEMTKNQVSLSCAVKGFYPSDIAVEWESNGQPENNYKTTPPVLDSDGSFFLVSKLTVDKSRWQQGNVFSCSVMHEALHNHYTQKSLSLSPG
light 1: not shown
heavy 2: EVQLVQSGAEVKKPGSSVKVSCKASGYTFASYGISWVRQAPGQGLEWMGGITPFFNRVDVAEKFQGRVTITADKSTSTAYIELSSLRSEDTAVYYCARDLRRGGVGDAFDIWGRGTLVTVSSASTKGPSVFPLAPSSKSTSGGTAALGCLVKDYFPEPVTVSWNSGALTSGVHTFPAVLQSSGLYSLSSVVTVPSSSLGTQTYICNVNHKPSNTKVDKRVEPKSCDKTHTCPPCPAPELLGGPDVFLFPPKPKDTLMISRTPEVTCVVVDVSHEDPEVKFNWYVDGVEVHNAKTKPREEQYNSTYRVVSVLTVLHQDWLNGKEYKCKVSNKALPLPEEKTISKAKGQPREPQVYTLPPSREEMTKNQVSLWCLVKGFYPSDIAVEWESNGQPENNYKTTPPVLDSDGSFFLYSKLTVDKSRWQQGNVFSCSVMHEALHNHYTQKSLSLSPG
light 2: QSALTQPRSVSGSPGQSVTISCTGTSPDVGSHAYRSWYQQHPGKAPKLMIYEVSYRPSGVSNRFSGSKSGNTASLTISGLQAEDEADYYCSSYPPSSATVFGAGTKLTVLGQPKAAPSVTLFPPSSEELQANKATLVCLISDFYPGAVTVAWKADSSPVKAGVETTTPSKQSNNKYAASSYLSLTPEQWKSHRSYSCQVTHEGSTVEKTVAPTEC
notes: Anti-CD96 arm = BA139, anti-TIGIT arm = BA150; copies: 1 + 1 + 1 + 1
Regarding B1, the half-inhibitory concentration (IC50) – broadly, the midpoint of a concentration-inhibition curve – in experiment [1] came to 0.164 µg/mL. Besides, the midpoint of the response in experiment [2], the EC50, lay at 0.033 µg/mL. Further, the “IC50 (read off the curve)” value in experiment [3] was about 3 µg/mL. For the same molecule, the EC50 (read off the curve) (in general, the concentration that produces a half-maximal response) in experiment [4] was about 0.03 µg/mL.

B2: anti-TIGIT monospecific antibody BA148 (antibody, human IgG1, lambda)
heavy: EVQLVQSGAEVKKPGSSVKVSCKASGYTFASYGISWVRQAPGQGLEWMGGITPFFNRVDVAEKFQGRVTITADKSTSTAYIELSSLRSEDTAVYYCARDLRRGGVGDAFDIWGRGTLVTVSSASTKGPSVFPLAPSSKSTSGGTAALGCLVKDYFPEPVTVSWNSGALTSGVHTFPAVLQSSGLYSLSSVVTVPSSSLGTQTYICNVNHKPSNTKVDKRVEPKSCDKTHTCPPCPAPELLGGPDVFLFPPKPKDTLMISRTPEVTCVVVDVSHEDPEVKFNWYVDGVEVHNAKTKPREEQYNSTYRVVSVLTVLHQDWLNGKEYKCKVSNKALPLPEEKTISKAKGQPREPQVYTLPPSREEMTKNQVSLTCLVKGFYPSDIAVEWESNGQPENNYKTTPPVLDSDGSFFLYSKLTVDKSRWQQGNVFSCSVMHEALHNHYTQKSLSLSPGK
light: B1 light 2
notes: IgG1; also called anti-TIGIT IgG1 antibody BA148
For the molecule B2, the “IC50 (read off the curve)” value in experiment [5] was about 0.2 µg/mL. For the same molecule, the IC50 in experiment [6] was 0.243 µg/mL. Also, the EC50 (usually the concentration at which the effect is half-maximal) in experiment [7] was determined as 0.00262 µg/mL. Moreover, the “Area under the curve (AUC)” value in experiment [8] is 50100.
